Data on two molecules can be found in patent US20220362404A1 (MACQUARIE UNIVERSITY, published 2022).

One assay has as its target T1, Flag-tagged cyclin F (Homo sapiens (Human), UniProt P41002 1-786).
T1 construct: Expressed in HEK293 cells and immunoprecipitated with anti-Flag; In the ubiquitylation assay it stood with co-immunoprecipitated Skp1, Cul1 and Rbx1; also called cyclin F-flag; Flag-cyclin F; not shown: C-terminal Flag tag
T1 sequence: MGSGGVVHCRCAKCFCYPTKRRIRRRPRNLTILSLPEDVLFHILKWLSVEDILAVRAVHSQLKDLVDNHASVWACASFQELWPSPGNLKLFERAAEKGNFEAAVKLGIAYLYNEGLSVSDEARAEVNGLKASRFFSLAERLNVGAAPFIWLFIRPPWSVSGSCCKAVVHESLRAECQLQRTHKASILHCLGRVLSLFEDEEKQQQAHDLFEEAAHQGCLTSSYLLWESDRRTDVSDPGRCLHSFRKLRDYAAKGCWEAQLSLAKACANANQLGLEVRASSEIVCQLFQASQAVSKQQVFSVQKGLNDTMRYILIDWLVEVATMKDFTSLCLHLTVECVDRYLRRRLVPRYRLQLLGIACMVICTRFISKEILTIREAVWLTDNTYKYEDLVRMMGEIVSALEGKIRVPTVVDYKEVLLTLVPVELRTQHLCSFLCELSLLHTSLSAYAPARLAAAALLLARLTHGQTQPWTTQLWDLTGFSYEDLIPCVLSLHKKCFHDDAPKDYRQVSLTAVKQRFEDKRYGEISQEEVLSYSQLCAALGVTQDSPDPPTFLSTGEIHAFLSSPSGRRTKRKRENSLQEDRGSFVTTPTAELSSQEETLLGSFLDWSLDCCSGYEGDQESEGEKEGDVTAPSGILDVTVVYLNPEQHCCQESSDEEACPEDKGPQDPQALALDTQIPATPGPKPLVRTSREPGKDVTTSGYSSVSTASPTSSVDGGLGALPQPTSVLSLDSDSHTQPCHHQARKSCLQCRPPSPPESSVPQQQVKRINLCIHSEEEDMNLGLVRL
As to the kind of experiment: co-immunoprecipitation with anti-myc from HEK293 lysate, immunoblot. On the procedure:
A. HEK293 cells were transfected with cyclin F-flag and TDP-43-HA. After 24 hours, cells were lysed and anti-flag antibodies or an IgG control were used to immunoprecipitate Flag-cyclin F. Eluates were analyzed by immunoblotting using antibodies recognizing cyclin F and TDP-43. B. HEK293 cells were transfected with cyclin F-flag and TDP-43-HA. At 24 hours post-transfection, cells were lysed and Flag-cyclin F was immunoprecipitated using antibodies recognizing the Flag tag. Eluates were analyzed by immunoblotting using antibodies recognizing cyclin F and phospho-TDP-43 (S409/410). C. Schematic showing the position of the RxL>AxA mutation within TDP-43. D. Cells were transfected with cyclin F and TDP-43(WT) or TDP-43(RxL>AxA). Cyclin F was immunoprecipitated from cell lysates using antibodies recognizing the Flag tag. Eluates were analyzed using anti-cyclin F and anti-TDP-43. E. Schematic showing the TDP-43 fragments used for immunoprecipitations. […] Eluates were analyzed by immunoblotting using antibodies recognizing cyclin F and myc.
In order to determine whether cyclin F interacts with TDP-43 through the typical RxL motif present in all known cyclin F substrates, constructs expressing wild-type TDP-43 or variant TDP-43 (RxL>AxA) were transfected into HEK293 cells (FIG. 1C). After 24 hours, the cells were lysed and Flag-cyclin F was immunoprecipitated and analyzed for TDP-43 by immunoblotting. […]
(In general: A western blot detects proteins with antibodies after separation by electrophoresis.)

Assay [1] addresses T2, recombinant His-tagged TDP-43 (full length) (UniProt Q13148 1-414).
T2 construct: In MST it was labelled with RED-tris-NTA dye on the His tag; also called His-TDP-43; recombinant TDP-43; not shown: His tag, printed as His-TDP-43
As to the kind of experiment: microscale thermophoresis, labelled His-TDP-43, GST-cyclin domain titrated. How it is done: Recombinant His-tagged TDP-43 (a gift from Professor Julie Atkin's laboratory) was diluted to 200 nM in PBS-T buffer (137 mM NaCl, 2.5 mM KCl, 10 mM Na2HPO4, 2 mM KH2PO4, pH 7.4; 0.05% (v/v) Tween-20). The RED-tris-NTA dye was diluted in PBS-T to 100 nM. For labelling, the recombinant protein and diluted dye were mixed in a 1:1 volume ratio and incubated for 30 minutes at room temperature. Recombinant cyclin F-GST was also diluted in PBS-T buffer prior to analysis. Concentrations of cyclin F-GST (cyclin box) ranged from 0-22 μM. Before MST measurements were carried out, samples were centrifuged for 10 minutes at 4° C. at 14,000×g. All MST measurements were performed on a NanoTemper Monolith™NT.115 instrument using standard treated capillaries at room temperature. Final dye concentration of 25 nM yielded the fluorescence intensity of around 300 counts at a LED power of 50%. Accordingly, the MST power range was between 40-60% intensity with a laser-on time of 30 s and a laser-off time of 5 s. All data were analysed by MO Affinity Analysis Software.

B1: Myc-tagged C-terminal fragment of TDP-43 (167-414) (other, UniProt Q13148 167-414, looked up)
chain: MIDGRWCDCKLPNSKQSQDEPLRSRKVFVGRCTEDMTEDELREFFSQYGDVMDVFIPKPFRAFAFVTFADDQIAQSLCGEDLIIKGISVHISNAEPKHNSNRQLERSGRFGGNPGGFGNQGGFGNSRGGGAGLGNNQGSNMGGGMNFGAFSINPAMMAAAQAALQSSWGMMGMLASQQNQSGPSGNNQNQGNMQREPNQAFGSGNNSYSGSNSGAAIGWGSASNAGSGSGFNGGFGSSMDSKSSGWGM
notes: Over-expressed in HEK293 cells with Flag-cyclin F; also called myc-TDP-43; not shown: myc tag, printed as myc-TDP-43
Regarding B1, the binding result in the assay with Flag-tagged cyclin F is recorded as “no binding”.

B2: GST-cyclin domain of cyclin F (aa 302-497) (other)
chain: QKGLNDTMRYILIDWLVEVATMKDFTSLCLHLTVECVDRYLRRRLVPRYRLQLLGIACMVICTRFISKEILTIREAVWLTDNTYKYEDLVRMMGEIVSALEGKIRVPTVVDYKEVLLTLVPVELRTQHLCSFLCELSLLHTSLSAYAPARLAAAALLLARLTHGQTQPWTTQLWDLTGFSYEDLIPCVLSLHKKCF
notes: Made in E. coli from pGEX5; also called cyclin box of cyclin F; cyclin F-GST (cyclin box); not shown: glutathione S-transferase (GST) tag of the pGEX5 vector
For B2, in assay [1], the binding result was “binds”.
